Target: Litopenaeus vannamei IRF, endogenous in shrimp tissues (Litopenaeus vannamei (endogenous in intestines and hepatopancreas))
Assay: native gel or EMSA; native-PAGE of shrimp tissue samples (intestines, hepatopancreas; hemocytes as negative control) with western-blot, beta-actin as control; also hepatopancreas at times after WSSV or poly (I:C) treatment

stoichiometry N: 2
Substance: Litopenaeus vannamei IRF, endogenous in shrimp tissues (natural protein)

Reference: PMC4602278
